Test results reported in publication PMC9352680, “A comprehensive thermodynamic model for RNA binding by the Saccharomyces cerevisiae Pumilio protein PUF4”.

T1: PUF4 RNA-binding domain (Saccharomyces cerevisiae, UniProt P25339 537-888)
T1 sequence: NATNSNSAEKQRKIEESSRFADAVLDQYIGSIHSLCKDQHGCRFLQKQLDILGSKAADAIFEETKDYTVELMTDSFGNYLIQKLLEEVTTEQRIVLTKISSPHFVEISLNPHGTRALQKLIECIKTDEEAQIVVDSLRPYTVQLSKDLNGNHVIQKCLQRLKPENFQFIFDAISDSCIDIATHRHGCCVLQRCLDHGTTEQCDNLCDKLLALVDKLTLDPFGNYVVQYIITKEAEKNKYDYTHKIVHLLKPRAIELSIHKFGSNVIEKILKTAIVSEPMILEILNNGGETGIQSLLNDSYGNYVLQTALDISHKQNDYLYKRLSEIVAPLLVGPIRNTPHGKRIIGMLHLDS


target: T1, PUF4 RNA-binding domain; test: Mg; RNA-MaP; 20 mM Na-HEPES pH 7.4, 30 mM KOAc, 0.75 mM MgCl2, 0.1% Tween-20, 5% glycerol, 0.1 mg/mL BSA, 2 mM DTT; 25 C; 0.0125-409.6 nM protein; details: tags: N-His6-TEV cleaved; C-SNAP kept, Cy3B-labelled; label: tethered on chip by stalled RNA polymerase

Binder	Kd [nM]
UCUCUUUAUAUUAAUAUCUCUU (ssRNA) [Ib_S1_P5E.1_K5.1_C5.1_H5.1_[G2A]_A5.1_F5.1_[T8A]_T5.1]	698
Id_ii_S2_P3E.2_K3.1_C3.2_[C-2A]_H3.1_A3.1_F3.1_T3.2_[T9C]_[A10T] (ssRNA) RNA: UUUGAUUAAUAUGAUAUCGUUCUUUCUAUUGUAUAUACUUUCUUUCUCGAUAUCAUAUUAAUCUUU	8.7
Id_ii_S2_P3E.2_K3.1_C3.2_[C-2A]_H3.1_A3.1_F3.1_T3.2_[A10T] (ssRNA) RNA: UUUGAUUAAUAUGAUAUCGUUCUUUCUAUUGUAUAUAUUUUCUUUCUCGAUAUCAUAUUAAUCUUU	3.05
Id_ii_S2_P3E.2_K3.1_C3.2_[T-1G]_H3.1_A3.1_F3.1_T3.2_[T9G]_[A10G] (ssRNA) RNA: UUUGAUUAAUAUGAUAUCGUUCUUUCUCGUGUAUAUAGGUUCUUUCUCGAUAUCAUAUUAAUCUUU	10.2
Id_ii_S2_P3E.3_K3.2_C3.2_[C-2G]_[T-1G]_H3.2_A3.1_F3.1_T3.2_[T9A]_[A10C] (ssRNA) RNA: UUUGAUUAAUAUGAUAUCGUUCUUUCUGGUAUAUAUAACUUCUUUCUCGAUAUCAUAUUAAUCUUU	1450
Id_ii_S2_P3E.3_K3.2_C3.2_[C-2G]_[T-1G]_H3.2_A3.1_F3.1_T3.2_[T9A] (ssRNA) RNA: UUUGAUUAAUAUGAUAUCGUUCUUUCUGGUAUAUAUAAAUUCUUUCUCGAUAUCAUAUUAAUCUUU	872
Id_ii_S2_P3E.2_K3.1_C3.2_[T-1C]_H3.1_A3.1_F3.1_T3.2_[T9A]_[A10T] (ssRNA) RNA: UUUGAUUAAUAUGAUAUCGUUCUUUCUCCUGUAUAUAAUUUCUUUCUCGAUAUCAUAUUAAUCUUU	1.48
Id_ii_S2_P3E.2_K3.1_C3.2_H3.1_A3.1_F3.1_T3.2_[A10C] (ssRNA) RNA: UUUGAUUAAUAUGAUAUCGUUCUUUCUCUUGUAUAUAUCUUCUUUCUCGAUAUCAUAUUAAUCUUU	1.61
Id_ii_S2_P3E.2_K3.1_C3.2_[T-1G]_H3.1_A3.1_F3.1_T3.2_[A10T] (ssRNA) RNA: UUUGAUUAAUAUGAUAUCGUUCUUUCUCGUGUAUAUAUUUUCUUUCUCGAUAUCAUAUUAAUCUUU	1.39
Id_ii_S2_P3E.2_K3.1_C3.2_[T-1C]_H3.1_A3.1_F3.1_T3.2_[A10T] (ssRNA) RNA: UUUGAUUAAUAUGAUAUCGUUCUUUCUCCUGUAUAUAUUUUCUUUCUCGAUAUCAUAUUAAUCUUU	1.22
Id_ii_S2_P3E.3_K3.2_C3.2_[C-2G]_H3.2_A3.1_F3.1_T3.2_[T9C]_[A10G] (ssRNA) RNA: UUUGAUUAAUAUGAUAUCGUUCUUUCUGUUAUAUAUACGUUCUUUCUCGAUAUCAUAUUAAUCUUU	291
Id_ii_S2_P3E.2_K3.1_C3.2_[T-1A]_H3.1_A3.1_F3.1_T3.2_[T9C]_[A10T] (ssRNA) RNA: UUUGAUUAAUAUGAUAUCGUUCUUUCUCAUGUAUAUACUUUCUUUCUCGAUAUCAUAUUAAUCUUU	5.2
Id_ii_S2_P3E.3_K3.2_C3.2_[C-2G]_[T-1C]_H3.2_A3.1_F3.1_T3.2_[T9A]_[A10C] (ssRNA) RNA: UUUGAUUAAUAUGAUAUCGUUCUUUCUGCUAUAUAUAACUUCUUUCUCGAUAUCAUAUUAAUCUUU	592
Id_ii_S2_P3E.2_K3.1_C3.2_H3.1_A3.1_F3.1_T3.2_[A10G] (ssRNA) RNA: UUUGAUUAAUAUGAUAUCGUUCUUUCUCUUGUAUAUAUGUUCUUUCUCGAUAUCAUAUUAAUCUUU	2.02
Id_ii_S2_P3E.2_K3.1_C3.2_H3.1_A3.1_F3.1_T3.2_[T9A] (ssRNA) RNA: UUUGAUUAAUAUGAUAUCGUUCUUUCUCUUGUAUAUAAAUUCUUUCUCGAUAUCAUAUUAAUCUUU	2.73
Id_ii_S2_P3E.2_K3.1_C3.2_[T-1A]_H3.1_A3.1_F3.1_T3.2_[T9G]_[A10T] (ssRNA) RNA: UUUGAUUAAUAUGAUAUCGUUCUUUCUCAUGUAUAUAGUUUCUUUCUCGAUAUCAUAUUAAUCUUU	3.93
If_S2_P3E.2_K3.1_C3.2_H3.1_A3.1_F3.1_T3.2 (ssRNA) RNA: UUUGAUUAAUAUGAUAUCGUUCUUUCUCUUGUAUAUAUAUUCUUUCUCGAUAUCAUAUUAAUCUUU	1.16
Id_ii_S2_P3E.2_K3.1_C3.2_[C-2A]_H3.1_A3.1_F3.1_T3.2 (ssRNA) RNA: UUUGAUUAAUAUGAUAUCGUUCUUUCUAUUGUAUAUAUAUUCUUUCUCGAUAUCAUAUUAAUCUUU	5.13
Id_ii_S2_P3E.2_K3.1_C3.2_H3.1_A3.1_F3.1_T3.2_[T9A]_[A10T] (ssRNA) RNA: UUUGAUUAAUAUGAUAUCGUUCUUUCUCUUGUAUAUAAUUUCUUUCUCGAUAUCAUAUUAAUCUUU	1.9
Id_ii_S2_P3E.2_K3.1_C3.2_[T-1A]_H3.1_A3.1_F3.1_T3.2_[T9A] (ssRNA) RNA: UUUGAUUAAUAUGAUAUCGUUCUUUCUCAUGUAUAUAAAUUCUUUCUCGAUAUCAUAUUAAUCUUU	3.89
Id_ii_S2_P3E.2_K3.1_C3.2_[T-1C]_H3.1_A3.1_F3.1_T3.2_[T9A]_[A10C] (ssRNA) RNA: UUUGAUUAAUAUGAUAUCGUUCUUUCUCCUGUAUAUAACUUCUUUCUCGAUAUCAUAUUAAUCUUU	2.58
Id_ii_S2_P3E.2_K3.1_C3.2_[T-1A]_H3.1_A3.1_F3.1_T3.2_[T9A]_[A10G] (ssRNA) RNA: UUUGAUUAAUAUGAUAUCGUUCUUUCUCAUGUAUAUAAGUUCUUUCUCGAUAUCAUAUUAAUCUUU	15.2
Id_ii_S2_P3E.2_K3.1_C3.2_[T-1G]_H3.1_A3.1_F3.1_T3.2_[T9A]_[A10T] (ssRNA) RNA: UUUGAUUAAUAUGAUAUCGUUCUUUCUCGUGUAUAUAAUUUCUUUCUCGAUAUCAUAUUAAUCUUU	1.85

Binder	Kd [nM]
Id_ii_S2_P3E.2_K3.1_C3.2_H3.1_A3.1_F3.1_T3.2_[A10T] (ssRNA) RNA: UUUGAUUAAUAUGAUAUCGUUCUUUCUCUUGUAUAUAUUUUCUUUCUCGAUAUCAUAUUAAUCUUU	1.32
Id_ii_S2_P3E.2_K3.1_C3.2_[T-1A]_H3.1_A3.1_F3.1_T3.2 (ssRNA) RNA: UUUGAUUAAUAUGAUAUCGUUCUUUCUCAUGUAUAUAUAUUCUUUCUCGAUAUCAUAUUAAUCUUU	1.35
Id_ii_S2_P3E.3_K3.2_C3.2_[C-2G]_H3.2_A3.1_F3.1_T3.2_[A10G] (ssRNA) RNA: UUUGAUUAAUAUGAUAUCGUUCUUUCUGUUAUAUAUAUGUUCUUUCUCGAUAUCAUAUUAAUCUUU	22.9
Id_ii_S2_P3E.3_K3.2_C3.2_[C-2G]_[T-1G]_H3.2_A3.1_F3.1_T3.2_[A10T] (ssRNA) RNA: UUUGAUUAAUAUGAUAUCGUUCUUUCUGGUAUAUAUAUUUUCUUUCUCGAUAUCAUAUUAAUCUUU	137
Id_ii_S2_P3E.2_K3.1_C3.2_[T-1A]_H3.1_A3.1_F3.1_T3.2_[T9A]_[A10T] (ssRNA) RNA: UUUGAUUAAUAUGAUAUCGUUCUUUCUCAUGUAUAUAAUUUCUUUCUCGAUAUCAUAUUAAUCUUU	2.96
Id_ii_S2_P3E.2_K3.1_C3.2_[T-1C]_H3.1_A3.1_F3.1_T3.2_[T9A]_[A10G] (ssRNA) RNA: UUUGAUUAAUAUGAUAUCGUUCUUUCUCCUGUAUAUAAGUUCUUUCUCGAUAUCAUAUUAAUCUUU	4.04
Id_ii_S2_P3E.2_K3.1_C3.2_[T-1G]_H3.1_A3.1_F3.1_T3.2_[T9A]_[A10G] (ssRNA) RNA: UUUGAUUAAUAUGAUAUCGUUCUUUCUCGUGUAUAUAAGUUCUUUCUCGAUAUCAUAUUAAUCUUU	7.62
Id_ii_S2_P3E.2_K3.1_C3.2_H3.1_A3.1_F3.1_T3.2_[T9G]_[A10C] (ssRNA) RNA: UUUGAUUAAUAUGAUAUCGUUCUUUCUCUUGUAUAUAGCUUCUUUCUCGAUAUCAUAUUAAUCUUU	2.46
Id_ii_S2_P3E.2_K3.1_C3.2_H3.1_A3.1_F3.1_T3.2_[T9G]_[A10T] (ssRNA) RNA: UUUGAUUAAUAUGAUAUCGUUCUUUCUCUUGUAUAUAGUUUCUUUCUCGAUAUCAUAUUAAUCUUU	4.32
Id_ii_S2_P3E.3_K3.2_C3.2_[C-2G]_H3.2_A3.1_F3.1_T3.2_[T9A]_[A10T] (ssRNA) RNA: UUUGAUUAAUAUGAUAUCGUUCUUUCUGUUAUAUAUAAUUUCUUUCUCGAUAUCAUAUUAAUCUUU	36.2
Id_ii_S2_P3E.2_K3.1_C3.2_[T-1C]_H3.1_A3.1_F3.1_T3.2_[T9G]_[A10T] (ssRNA) RNA: UUUGAUUAAUAUGAUAUCGUUCUUUCUCCUGUAUAUAGUUUCUUUCUCGAUAUCAUAUUAAUCUUU	2.32
Id_ii_S2_P3E.3_K3.2_C3.2_[C-2G]_[T-1C]_H3.2_A3.1_F3.1_T3.2_[T9C]_[A10C] (ssRNA) RNA: UUUGAUUAAUAUGAUAUCGUUCUUUCUGCUAUAUAUACCUUCUUUCUCGAUAUCAUAUUAAUCUUU	329
Id_ii_S2_P3E.3_K3.2_C3.2_[C-2G]_H3.2_A3.1_F3.1_T3.2_[A10C] (ssRNA) RNA: UUUGAUUAAUAUGAUAUCGUUCUUUCUGUUAUAUAUAUCUUCUUUCUCGAUAUCAUAUUAAUCUUU	15.1
Id_ii_S2_P3E.3_K3.2_C3.2_[C-2G]_H3.2_A3.1_F3.1_T3.2_[T9C]_[A10C] (ssRNA) RNA: UUUGAUUAAUAUGAUAUCGUUCUUUCUGUUAUAUAUACCUUCUUUCUCGAUAUCAUAUUAAUCUUU	31.2
Id_ii_S2_P3E.2_K3.1_C3.2_[T-1C]_H3.1_A3.1_F3.1_T3.2_[A10C] (ssRNA) RNA: UUUGAUUAAUAUGAUAUCGUUCUUUCUCCUGUAUAUAUCUUCUUUCUCGAUAUCAUAUUAAUCUUU	0.998
Id_ii_S2_P3E.2_K3.1_C3.2_[T-1A]_H3.1_A3.1_F3.1_T3.2_[A10C] (ssRNA) RNA: UUUGAUUAAUAUGAUAUCGUUCUUUCUCAUGUAUAUAUCUUCUUUCUCGAUAUCAUAUUAAUCUUU	2.36
Id_ii_S2_P3E.2_K3.1_C3.2_[T-1C]_H3.1_A3.1_F3.1_T3.2_[T9C]_[A10G] (ssRNA) RNA: UUUGAUUAAUAUGAUAUCGUUCUUUCUCCUGUAUAUACGUUCUUUCUCGAUAUCAUAUUAAUCUUU	4.24
Id_ii_S2_P3E.2_K3.1_C3.2_[T-1A]_H3.1_A3.1_F3.1_T3.2_[A10T] (ssRNA) RNA: UUUGAUUAAUAUGAUAUCGUUCUUUCUCAUGUAUAUAUUUUCUUUCUCGAUAUCAUAUUAAUCUUU	1.78
Id_ii_S2_P3E.3_K3.2_C3.2_[C-2G]_[T-1C]_H3.2_A3.1_F3.1_T3.2_[A10T] (ssRNA) RNA: UUUGAUUAAUAUGAUAUCGUUCUUUCUGCUAUAUAUAUUUUCUUUCUCGAUAUCAUAUUAAUCUUU	86.4
UCUCUUUGUGUUACUAUCUCUU (ssRNA) [Ib_S1_P5E.1_K5.1_C5.1_H5.1_[A4G]_A5.1_F5.1_[T8C]_T5.1]	51.5
UCUCUUUGUUUUAGUAUCUCUU (ssRNA) [Ib_S1_P5E.1_K5.1_C5.1_H5.1_[A4T]_A5.1_F5.1_[T8G]_T5.1]	70.8
UCUCUUUGUCUUACUAUCUCUU (ssRNA) [Ib_S1_P5E.1_K5.1_C5.1_H5.1_[A4C]_A5.1_F5.1_[T8C]_T5.1]	86.7
UCUCUUUGCAUUACUAUCUCUU (ssRNA) [Ib_S1_P5E.1_K5.1_C5.1_H5.1_[T3C]_A5.1_F5.1_[T8C]_T5.1]	1370
